# T1: HBV core antigen (hepatitis B virus), P03146
# T1 chain: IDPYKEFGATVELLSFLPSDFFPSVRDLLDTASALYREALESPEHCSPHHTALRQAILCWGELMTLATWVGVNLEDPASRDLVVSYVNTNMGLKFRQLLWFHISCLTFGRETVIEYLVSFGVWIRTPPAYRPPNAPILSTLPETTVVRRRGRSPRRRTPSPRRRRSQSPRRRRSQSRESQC
# T2: C-terminally truncated HBV core antigen (aa3-148) (hepatitis B virus), P03146
# T2 chain: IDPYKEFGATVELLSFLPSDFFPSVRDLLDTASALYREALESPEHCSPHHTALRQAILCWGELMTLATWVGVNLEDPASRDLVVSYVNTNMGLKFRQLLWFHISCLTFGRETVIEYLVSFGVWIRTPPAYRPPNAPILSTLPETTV
# B1: fd fusion phage carrying … (SEQ ID NO: 22) (peptide)
# chain: ADGHRSSLLGRMKGA
# modifications: not checked
# B2: fd fusion phage carrying … (SEQ ID NO: 23) (peptide)
# chain: ADGPRSSLLGRMKGA
# modifications: not checked
# B3: fd fusion phage carrying … (SEQ ID NO: 24) (peptide)
# chain: ADGAHRSLLGRMKGA
# modifications: not checked
# B4: fd fusion phage carrying … (SEQ ID NO: 25) (peptide)
# chain: ADGYQRSLLGRMKGA
# modifications: not checked
# B5: fd fusion phage carrying … (SEQ ID NO: 26) (peptide)
# chain: ADGTQRSLLGRMKGA
# modifications: not checked
# B6: fd fusion phage carrying … (SEQ ID NO: 14) (peptide)
# chain: ADGALLGRMKPA
# modifications: not checked
# B7: fd fusion phage carrying … (SEQ ID NO: 15) (peptide)
# chain: ADGSLLGRMKPA
# modifications: not checked
# B8: peptide … (SEQ ID NO: 40) (peptide)
# peptide: MHRSLLGRMKGA
# modifications: not checked
# B9: fd fusion phage carrying … (SEQ ID NO: 16) (peptide)
# chain: ADGALLGRMKRA
# modifications: not checked
# B10: fd fusion phage carrying … (SEQ ID NO: 17) (peptide)
# chain: ADGTLLGRMKLA
# modifications: not checked
# B11: fd fusion phage carrying … (SEQ ID NO: 19) (peptide)
# chain: ADRSLLGRMKGA
# modifications: not checked
# B12: fd fusion phage carrying … (SEQ ID NO: 20) (peptide)
# chain: ADGSRSSLLGRMKGA
# modifications: not checked
# Assays:
# [1] = molecular target: T1, HBV core antigen (hepatitis B virus), …; experiment: relative dissociation constant (KD^Rel), fd fusion phage with HBV core antigen in solution
# [2] = molecular target: T2, C-terminally truncated HBV core antigen …; experiment: EDC/sulpho-NHS crosslinking, SDS-PAGE band shift
Binder,Kd [1],yield of the shifted (crosslinked) protein band [2]
B1,1.4 nM,–
B2,0.84 nM,–
B3,0.94 nM,–
B4,0.88 nM,–
B5,0.84 nM,–
B6,767 nM,–
B7,322 nM,–
B8,–,< 50%
B9,181 nM,–
B10,20 nM,–
B11,1.09 nM,–
B12,1.96 nM,–

# From patent US7226603
